Data from publication PMC8237399.

Key:
[1] = biological target: filamin C (FLNc) Ig-like domains 23–24, wild type (human); test: cross-linking
[2] = biological target: filamin C (FLNc) Ig-like domains 23–24, wild type (human); test: cross-linking; remark: listed apart in the source
[3] = biological target: filamin C (FLNc) Ig-like domains 23–24, wild type (human); test: SEC-MALS

Measured: stoichiometry N

filamin C (FLNc) Ig-like domains 23–24, wild type (domain or fragment)
2: all assays above
